Here are results for six molecules from US20260132464A1, “CIRCULAR RNAS FOR THE DIAGNOSIS AND TREATMENT OF BRAIN DISORDERS” (UNM Rainforest Innovations, priority 2018, published 2026).

One series has as its system circHomer1a. The series is described as follows: circHomer1a expression (circRNA qRT-PCR) after 2 day drug treatment of stem cell-derived mixed neuronal and astrocyte cultures. The series is classed as cell-based. To be noted: 2 days treatment, human 6-9 month differentiated stem cell-derived mixed neuronal and astrocyte cultures. An excerpt:
FIG. 6A is a representative bright-field image from 6-9 month differentiated human embryonic stem cell (hESC)-derived mature mixed neuronal and glial cultures.
FIG. 6B is an immunofluorescence image showing the presence of neurons (MAP2, red) and astrocytes (GFAP, green). Scale bar=100 μm.
05, two-tailed one sample t-test. The number of replicates is also shown within the graph.
Background: Quantitative PCR measures a nucleic acid by following its amplification.

The test system of series [1] is OFC of subjects with SCZ and BD. Put plainly: circRNA-specific qRT-PCR in postmortem OFC of SCZ, BD and Control subjects. To be noted: for circRNA expression in OFC, BD patients vs unaffected Controls / circRNA expression in OFC, SCZ patients vs unaffected Controls: qRT-PCR, postmortem OFC. On the set-up: species or system human. The source says: 05, based on general linear model correcting for RIN, PMI, RI, and brain pH. A schematic showing the multi-exonic nature of circADAM22 is also shown.
In FIGS. 4A-C, E-F **p<. 01, based on a Univariate General Linear Model corrected for RIN, PMI, RI, and brain pH.
A schematic of the exonic nature of circHomer1b is also shown. In all graphs individual SCZ, BD, and Control sample values are shown. ***p<. 001, based on general linear model correcting for RIN, PMI, RI, and brain pH.
(§1) Given that harsh RNAseR treatment can partially digest some circRNAs together with all linear RNAs, thus making circRNA screening semi-quantitative, the present disclosure also provides novel validated and sequence-verified circRNA-specific qRT-PCR primers aimed at the unique circRNA-specific splice junction, which enable the measurement of a subset of dysregulated circRNAs in non RNaseR-treated samples. These primers are shown in FIGS. 3C, 8B, and 14A, B (See also SEQ ID NOS. 2, 3, 5, 6, 8, 9, 11 or 12).

The test system of series [2] is DLPFC of subjects with SCZ and BD. Put plainly: circRNA-specific qRT-PCR in postmortem DLPFC of SCZ, BD and Control subjects. More on the design: species or system human.
Text: In all graphs individual SCZ, BD, and Control sample values are shown.
A schematic of the exonic nature of circHomer1b is also shown.
as §1

Series [3] deals with orbitofrontal cortex (OFC) of subjects with Bipolar Disorder. The series is described as follows: circRNA microarray profiling, OFC of subjects with Bipolar Disorder vs unaffected Controls (Table 3). On the set-up: species or system human. An excerpt: (§2) Example of circRNA array raw image is also shown.
(§3) The circRNAs in Tables 3 and 4 were identified by profiling circRNA expression in OFC RNA samples from 34 SCZ, 32 BD, and 34 unaffected control subjects from the Stanley Medical Research Institute.
Additional methods for identifying these brain disorder-associated circRNA biomarkers are discussed below.

Series [4] has as its system stem cell-derived (iPSC) neuronal cultures from patients with SCZ and BD. Put plainly: circHomer1a levels in iPSC-derived neuronal cultures from SCZ and BD patients vs Control. The series is classed as cell-based, human. The source says:
05, two-tailed one sample t-test relative to the Control of the same developmental time-point.
05, two-tailed one sample t-test relative to the Control of the same developmental time-point. In all graphs individual samples are shown.

Series [5] has as its system OFC of subjects with Schizophrenia. Put plainly: circRNA microarray profiling, OFC of subjects with Schizophrenia vs unaffected controls (Table 4). On the set-up: species or system human. The following applies: relative to Control fold change of circRNA expression.
Text: as §2
FIG. 1C is a volcano plot showing differential circRNA expression in SCZ patients vs unaffected Controls (x-axis=relative to control log 2 fold changes; y-axis: negative log 10 of the p-values). Vertical lines correspond to >1.25-fold changes, and the horizontal line represents p<. 05. Example of validated circRNAs are shown in the graph.
as §3
All circRNA array experiments used for Tables 1-4 were performed by employing a commercially available circRNA microarray platform that uses 13,617 circRNA splice junction probes designed based on previous RNA sequencing and circRNA annotation data (Service sold by Arraystar Inc.). Analysis of circRNA changes in postmortem brain samples from the OFC of subjects with BD uncovered a subset of differentially expressed circRNAs (Table 3) a subset of which stemmed from genes related to synaptic transmission, neuronal development and migration, and short term memory (FIGS. 1A-C, 2A-B), whereas altered circRNAs in SCZ (Table 4 and FIGS. 1A-C, 2A-B) were associated, among others, with the mitogen-activated protein kinase (MAPK/ERK) and protein kinase B (PKB/AKT) pathways. […]

Consider `O=C(CCCN1CCC(O)(c2ccc(Cl)cc2)CC1)c1ccc(F)cc1` [Haloperidol], for which the “circHomer1a expression relative to Vehicle” value with circHomer1a is reported as “lack of effect”.
Same read-out and setting: under `CCCC(CCC)C(=O)O` [Valproic acid, valproic acid] stands “increase”.

B1: circHomer1b: circRNA generated from the backsplicing of exons 2 and 3 of HOMER1 pre-mRNA (nucleic acid, listed as Homo sapiens)
chain: GGAACAACCTATCTTCAGCACTCGAGCTCATGTCTTCCAAATTGACCCAAACACAAAGAAGAACTGGGTACCCACCAGCAAGCATGCAGTTACTGTGTCTTATTTCTATGACAGCACAAGAAATGTGTATAGGATAATCAGTTTAGATGGCTCAAAGGCAATAATAAATAGTACCATCACCCCAAACATGACATTTACTAAAACATCTCAGAAGTTTGGCCAGTGGGCTGATAGCCGGGCAAACACCGTTTATGGATTGGGATTCTCCTCTGAGCATCATCTTTCGAAA
modifications: circular RNA
notes: circRNA generated from the backsplicing of exons 2 and 3 of HOMER1 pre-mRNA
Consider B1, for which, in series [1], the “circRNA expression in OFC, BD patients vs unaffected Controls” value is “reduced” and the “circRNA expression in OFC, SCZ patients vs unaffected Controls” value was “reduced”. The “circRNA expression in DLPFC, BD patients vs unaffected Controls” value in series [2] is recorded as “not”.

B2: circADAM22: circRNA derived from the epilepsy-related gene ADAM metallopeptidase domain 22 (ADAM22) (nucleic acid, listed as Homo sapiens)
chain: GTGAATGTAAATGCGAGGACACGTGGTCCGGGTGCATAATGGGAGACACTGGCTATTATCTTCCTAAAAAGTTCACCCAGTGTAATATTGAAGAGTATCATGACTTCCTGAATAGTGGAGGTGGTGCCTGCCTTTTCAACAAACCTTCTAAGCTTCTTGATCCTCCTGAGTGTGGCAATGGCTTCATTGAAACTGGAGAGGAGTGTGATTGTGGAACCCCGGCCGAATGTGTCCTTGAAGGAGCAGAGTGTTGTAAGAAATGCACCTTGACTCAAGACTCTCAATGCAGTGACGGTCTTTGCTGTAAAAAGTGCAAGTTTCAGCCTATGGGCACTGTGTGCCGAGAAGCAGTAAATGATTGTGATATTCGTGAAACGTGCTCAGGAAATTCAAGCCAGTGTGCCCCTAATATTCATAAAATGGATGGATATTCATGTGATGGTGTTCAGGGAATTTGCTTTGGAGGAAGATGCAAAACCAGAGATAGACAATGCAAATACATTTGGGGGCAAAAGGTGACAGCATCAGACAAATATTGCTATGAGAAACTGAATATTGAAGGGACGGAGAAGGGTAACTGTGGGAAAGACAAAGACACATGGATACAGTGCAACAAACGGGATGTGCTTTGTGGTTACCTTTTGTGTACCAATATTGGCAATATCCCAAGGCTTGGAGAACTCGATGGTGAAATCACATCTACTTTAGTTGTGCAGCAAGGAAGAACATTAAACTGCAGTGGTGGGCATGTTAAGCTTGAAGAAGATGTAGATCTTGGCTATGTGGAAGATGGGACACCTTGTGGTCCCCAAATGATGTGCTTAGAACACAGGTGTCTTCCTGTGGCTTCTTTCAACTTTAGTACTTGCTTGAGCAGTAAAGAAGGCACTATTTGCTCAGGAAATGGAGTTTGCAGTAATGAGCTGAAGTGTGTGTGTAACAGACACTGGATAGGTTCTGATTGCAACACTTACTTCCCTCACAATGATGATGCAAAGACTGGTATCACTCTGTCTGGCAATGGTGTTGCTGGCACCAATATCATAATAGGCATAATTGCTGGCACCATTTTAGTGCTGGCCCTCATATTAGGAATAACTGCGTGGGGTTATAA
modifications: circular RNA
Regarding B2, in series [3] (circRNA expression in OFC, Bipolar Disorder vs unaffected Controls), the “Fold BD OFC” value is recorded as 0.5247. Further, in series [1], the “circRNA expression in OFC, BD patients vs unaffected Controls” value is “decreased expression” and the “circRNA expression in OFC, SCZ patients vs unaffected Controls” value is “unchanged”.

B3: circHomer1a: circRNA derived from exons 2-5 of Homer protein homolog 1 (HOMER1) (nucleic acid, listed as Homo sapiens)
chain: GGAACAACCTATCTTCAGCACTCGAGCTCATGTCTTCCAAATTGACCCAAACACAAAGAAGAACTGGGTACCCACCAGCAAGCATGCAGTTACTGTGTCTTATTTCTATGACAGCACAAGAAATGTGTATAGGATAATCAGTTTAGATGGCTCAAAGGCAATAATAAATAGTACCATCACCCCAAACATGACATTTACTAAAACATCTCAGAAGTTTGGCCAGTGGGCTGATAGCCGGGCAAACACCGTTTATGGATTGGGATTCTCCTCTGAGCATCATCTTTCGAAATTTGCAGAAAAGTTTCAGGAATTTAAAGAAGCTGCTCGACTAGCAAAGGAAAAATCACAAGAGAAGATGGAACTTACCAGTACACCTTCACAGGAATCCGCAGGCGGGGATCTTCAGTCTCCTTTAACACCGGAAAGTATCAACGGGACAGATGATGAAAGAACACCTGATGTGACACAGAACTCAGAGCCAAGGGCTGAACCAACTCAGAATGCATTGCCATTTTCACATAG
modifications: circular RNA
As for B3, in series [3] (circRNA expression, OFC of subjects with Bipolar Disorder vs unaffected Controls), the “Fold BD OFC” value came to 0.6440. For the same molecule, the “correlation of expression with duration of illness” value in series [1] (SCZ and BD patients (FIGS. 4H, 5D; OFC and DLPFC)) is “positively correlated”. The “correlation of expression with age of onset of disease” value in series [1] (SCZ patients (FIGS. 4G, 5C; OFC and DLPFC)) is on record as “positively correlated”. For the same molecule, in series [1], the “circRNA expression in OFC, BD patients vs unaffected Controls” value was “reduced” and the “circRNA expression in OFC, SCZ patients vs unaffected Controls” value is listed as “reduced”. Also, the “circRNA expression in DLPFC, BD patients vs unaffected Controls” value in series [2] is “reduced”. Further, the “circRNA expression in DLPFC, SCZ patients vs unaffected Controls” value in series [2] (SCZ) is listed as “reduced”. Besides, the “circHomer1a expression in iPSC neuronal cultures, patients vs Control” value in series [4] is “reduced”.

B4: circCUL4A: circRNA biomarker for brain disorders, increased in OFC of SCZ patients (nucleic acid, listed as Homo sapiens)
chain: GTCACGTCCCGTGTGGCTGTGGAGATCTCTGTGTGACTATGGAGGTTTCATCCATGTGGCTCTGAAGGTCTCTGTGTGACTATGGAGGTCGCGTCCCATGTGGCTGTGGAGGTCGCTGTGTGGCTATGGAG
modifications: circular RNA
notes: circRNA biomarker for brain disorders, increased in OFC of SCZ patients
Take B4: the “Fold SCZ OFC” value in series [5] was found to be 1.4626. Moreover, in series [1], the “circRNA expression in OFC, BD patients vs unaffected Controls” value is “unchanged” and the “circRNA expression in OFC, SCZ patients vs unaffected Controls” value is given as “increased expression”.
